This series has as its target p53CD (core domain) (human) (UniProt P04637). Nature of the series: ELISA. The conditions noted are these: EMSA: 5 mM Tris-HCl pH 8, 1 mM MgCl2, 0.01% Triton X-100, 50 mM KCl, on ice or 25 C, 30 min, pBSK/SmaI competitor 5-50 ng; ELISA: 1x PBS, 2 mM MgCl2 …. (ELISA stands for enzyme-linked immunosorbent assay.)

This is an account of results in article PMC5131957.

In general, Kd refers to the equilibrium constant for the complex coming apart. Read a high Kd as weaker binding.

p53CD (core domain) (human), sequence (P04637 94-312): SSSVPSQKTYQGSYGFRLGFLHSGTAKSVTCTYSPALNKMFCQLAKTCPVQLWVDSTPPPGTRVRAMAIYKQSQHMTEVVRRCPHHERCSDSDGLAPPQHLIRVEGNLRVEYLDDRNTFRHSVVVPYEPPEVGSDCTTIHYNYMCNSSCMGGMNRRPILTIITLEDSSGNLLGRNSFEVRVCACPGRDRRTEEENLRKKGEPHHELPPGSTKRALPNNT

Regarding “TTTTTTTTTTTTTTTTTTTTTTTTTTTTTTTTTTTTTTTTTTTTTTTTTT / AAAAAAAAAAAAAAAAAAAAAAAAAAAAAAAAAAAAAAAAAAAAAAAAAA / TTTTTTTTTTTTTTTTTTTTTTTTTTTTTTTTTTTTTTTTTTTTTTTTTT [T.A.T triplex, biotinylated]”, the Kd turned out to be 0.0168 µM.
